According to paper PMC4552016, “The Rsb Phosphoregulatory Network Controls Availability of the Primary Sigma Factor in Chlamydia trachomatis and Influences the Kinetics of Growth and Development” (PLoS Pathogens, 2015):

T1: σ^66, recombinant purified, amine-coupled SPR ligand (Chlamydia trachomatis, UniProt P18333 1-571)
T1 construct: Sigma66 (RpoD) of Chlamydia trachomatis, cloned from serovar D/UW/CX genomic DNA; may be the same construct as m12 (GST-σ66); also called Sigma66; RpoD; source: PC2 E. coli, pGEX-derived vector, purified
T1 sequence (looked up): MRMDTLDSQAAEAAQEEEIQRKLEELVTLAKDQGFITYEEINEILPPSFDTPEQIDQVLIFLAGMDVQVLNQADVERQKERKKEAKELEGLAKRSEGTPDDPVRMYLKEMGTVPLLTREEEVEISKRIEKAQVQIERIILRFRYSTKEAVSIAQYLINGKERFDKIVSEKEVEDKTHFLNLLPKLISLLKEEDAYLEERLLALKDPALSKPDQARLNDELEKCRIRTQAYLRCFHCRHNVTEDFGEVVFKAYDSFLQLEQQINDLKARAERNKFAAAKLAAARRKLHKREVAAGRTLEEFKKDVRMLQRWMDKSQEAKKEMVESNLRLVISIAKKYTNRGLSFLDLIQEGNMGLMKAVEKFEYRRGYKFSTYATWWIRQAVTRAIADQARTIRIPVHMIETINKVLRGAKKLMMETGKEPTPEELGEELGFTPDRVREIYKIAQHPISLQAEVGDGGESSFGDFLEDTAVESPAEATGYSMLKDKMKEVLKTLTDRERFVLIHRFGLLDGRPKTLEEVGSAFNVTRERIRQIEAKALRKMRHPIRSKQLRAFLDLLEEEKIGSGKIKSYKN

B1: RsbV2 S55A (natural protein)
chain: MEWIAREYKNIFIVSLKGDMDAVTVPALEEFLTKSIAKGRVNVLLNMEKVFYMSAAGLRTLLSLAKLTQNHNGKLCICCLRDEVADIIRIAGLDKVITIRKAEQESFSDF
notes: RsbV2 of Chlamydia trachomatis (serovar D/UW/CX) with the phospho-accepting serine 55 changed to alanine; also called alanine derivative of RsbV2; source: PC2 E. coli, pGEX-derived vector (site directed mutagenesis), purified
B2: RsbV1 S56A (natural protein)
chain: MSNFQKEEQGQTGILHLQGKLDGVSSPAVQESISESLSNGMKNIILDCGDLDYISAAGIRVLLQSYHQVGKNAGKIALTSVSKTVEQTLYVTGFLSYFKVFDSVNEALQALAKENS
notes: RsbV1 of Chlamydia trachomatis (serovar D/UW/CX) with the phospho-accepting serine 56 changed to alanine; also called alanine derivative of RsbV1; source: PC2 E. coli, pGEX-derived vector (site directed mutagenesis), purified
B3: RsbWCt, recombinant purified (SPR analyte) (natural protein, Chlamydia trachomatis, UniProt O84553 1-146, looked up)
chain: MTFSEGEQVFPATLQDLYPMLDFVKRAGVHCNCTQKKLSKLELACEELLLNIITHAYKGLPSTGWIRILCTETPDALLVRITDHGPAFNPITASPDIMRLDLPIEQRRIGGLGIFLAKYSVDVFDYERVNDTNVVTLTLYTKPHNS
notes: RsbW of Chlamydia trachomatis, cloned from serovar D/UW/CX genomic DNA; also called CT549; source: PC2 E. coli, pGEX-derived vector, purified

How the values were obtained:
[1] = target: B3; assay: SPR; RsbV1, RsbV2 or their S-to-A / S-to-D derivatives immobilized on CM5 chip, RsbWCt analyte (2500nM for the wild-type ligands) with ATP, first and repeated injections; empty reference flow cell; 10mM HEPES, 150mM NaCl, 1mM MgCl2, 30°C; conditions: both partners purified
[2] = target: T1, σ^66, recombinant purified, …; assay: SPR; Biacore 3000, CM5 chip; σ66, σ28 and σ54 amine-coupled to consecutive flow cells, RsbWCt analyte at various concentrations; reference flow cell with immobilized GST; Req as percent of theoretical Rmax; 10mM HEPES, 150mM NaCl, 1mM MgCl2, 30°C; conditions: both partners purified

Row | Binder | binding result [1] | binding result [2]
1 | B1 | binds | 
2 | B2 | binds | 
3 | B3 |  | binds
